Changes are numbered by the printed parent chain.

As usually defined, the Kd is the equilibrium constant for the complex coming apart. Lower therefore signals higher affinity.

T1: 10E8-GT10.2 epitope scaffold (designed scaffold 10E8-GT10.2 with …, N-linked glycosylation sites added (positions not given))
T1 chain: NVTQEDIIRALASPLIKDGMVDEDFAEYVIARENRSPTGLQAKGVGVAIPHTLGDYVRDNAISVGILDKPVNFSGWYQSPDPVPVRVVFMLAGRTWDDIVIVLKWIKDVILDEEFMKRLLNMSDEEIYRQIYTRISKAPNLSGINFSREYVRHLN

B1: MPER18_d21_45.1_v55_m3_C07 (antibody, V domains shown)
VH: QVQLKQSGPGLVQPSQSLSITCTVSGFSLTNYDIHWVRQSPGKGLEWLGVIWSGGSTDYNAGFISRLSISKDNSKSQVFFKMNSLQGDDTAIYYCARGGGYYEDYVMDYWGQGTSVTVSS
VL: DIQMTQSPASLSASVGETVTITCRASGNIHNYLAWYQQKQGESPHLLVYNAKTLADGVPSRFSGSDSGTQYSLKINSLQPEDFGSYYCQHFWTTPYTFGGGTKLEIK
B2: MPER18_d21_45.1_v55_m3_D12 (antibody, V domains shown)
VH: QVQLQQSGAELMKPGASVILSCKATGYTFTGYWIEWVKLRPGHGLEWIGEILPGNSSTKYNEKFKGKATFTADTSSNTANMQLSSLTTEDSAIYYCARRWNDYDGVAWFGYWGQGTLVSVSA
VL: B1 VL with E42K, H45Q, N50S, D66G, T93S
B3: MPER18_d21_45.1_v55_m3_D01 (antibody, V domains shown)
VH: B1 VH with I34V, E46A, G62T, S76T, G87A, V106A
VL: NIVLTQSPASLAVSLGQRATISCRASESVDTYGNSFMHWYQLKPGQPPKLLIYLASNLESGVPARFSGSGSRTDFTLTIDPVEADDAATYYCQQNNEDPYTFGGGTELEIQ
B4: MPER18_d21_45.1_v55_m3_F02 (antibody, V domains shown)
VH: QVQLKQSGPGLVQPSQSLSITCTVSGFSLTSNGVHWVRQSPGKGLDWLGVIWTGGSTDYNTTFLSRLSISKDNSKSQVFFKMNSLQADDTAIYYCARGGGYYEDYAMDYWGQGTSVTVSS
VL: B1 VL with E42K, H45Q, D66G, Y87C, T93S, K107R
B5: NHP-10E8_MPER-GT10v55_W21-01 (antibody, V domains shown)
VH: EVRLVESGGGLVQPGGSLRLSCAASGFTFSDYYMSWVRQAPGKGPEWVGFIRNKANGGTAEYAASVKGRFTISRDDSKSIASLQMNSLKTEDTAVYYCARAPLHYNFWSGYYTDYGLDSWGQGVVVTVSS
VL: DIVMTQSPDSLAVSLGERVTINCKSSQSLLYSSNNKNYLAWYQQKPGQAPKLLIYWASTRESGVPNRFSGSGSGSDFTLTISGLQAEDVAVYYCQQYYSTPHSFGQGTKVEIK
B6: MPER-052 (antibody, V domains shown)
VH: EVQLVESGGGLVQPGRSLRLSCTASGFTFGDYAMSWVRQAPGKGLEWVGFIRSKAYGGTTEYAASVKGRFTISRDDSKSIAYLQMNSLKTEDTAVYYCTRDLMGYYDFWSGYYRGHYGMDVWGKGTTVTVSS
VL: AIQMTQSPSSLSASVGDRVTITCRASQGIRNDLGWYQQKPGKAPKLLIYAASSLQSGVPSRFSGSGSGTDFTLTISSLQPEDFATYYCLQDYNYPLTFGGGTKVEIK
B7: NHP-10E8_MPER-GT10v55_W21-02 (antibody, V domains shown)
VH: EVQLVESGGGLVQPGGSLRLSCAASGFTFSNYWMSWVRQAPGKGLEWVGFIKNKADGGTAAYAESVKGRFTISRDDSKNTLYLQMNSLKTEDTAVYYCARAGAPYYNFWSGYYESYDAFDFWGQGLRVTVSS
VL: QPVLTQPTSLSASPGASARLTCTLRSGISVGSYRIFWYQQKPGSPPRYLLNYHTDSDKHQGSGVPSRFSGSKDASANAGILLISGLQSEDEADYYCMIWHNNAVLFGGGTRLTV
B8: MPER18_d21_45.2_v55_15 (antibody, V domains shown)
VH: QVQLQESGPGLVKPSETLSLTCTVSGGSISSYSWSWIRQPPGKGLEWIGYISYSGSTNYNPSLKSRVTISVDTSKSQFSLKLSSVTAADTAVYYCAREPPYYDFWNELSMGVGAFDIWGQGTMVTVSS
VL: DVLMTQIPLSLPVSLGDQASISCRSSQSIVQNNGNTFLEWFLQKPGQSPKLLIYRVSNRFSGVPDRFSGSGSGTDFTLKISRVEAEDLGVYYCFQGSHVPWTFGGGTKLEIK
B9: MPER18_d21_45.2_v55_m15_D07 (antibody, V domains shown)
VH: B8 VH with K13R, S33Y, S52Y, S76N, S83N, A96T, N106S, M110L
VL: B8 VL with V2I, L3V, I7S, S28T, Q31H, N32S, N35Y, F37Y, F41Y, R55K
B10: MPER18_d21_45.2_v55_m5_E10 (antibody, V domains shown)
VH: B8 VH with T23S, S31G, S33Y, S52F, S76N, S83T, N106S, E107G
VL: DIVMTQTPLSLPVSLGDQASISCSSSQNIVHSNGYTYLEWYLQKPGQSPKLLIYKVSNRFSGVPDRFSGSGSGTDFTLKISRVEAEDLGVYYCFQGSHVPYTFGGGTKLEIK
B11: MPER18_d21_45.2_v55_21 (antibody, V domains shown)
VH: B8 VH with S33Y, S76N, A87T
VL: B8 VL with R24S
B12: MPER18_d21_45.2_v55_m15_A04 (antibody, V domains shown)
VH: B8 VH with S33Y, S52F, K64R, D72G, S76N, S83N, N106S, E107G, V112M
VL: B10 VL with V3L, T7S, S24R, N28S, Y35N, T36S, V99I, Y101W
B13: MPER18_d21_45.2_v55_m15_A06 (antibody, V domains shown)
VH: B8 VH with T21A, I29F, Y32S, S33Y, S52Y, I69M, S76N, N106S, E107G
VL: B8 VL with I7S, P12S, I29V, Q31H, N32S, F37Y, F41Y, K44Q, R55K
B14: NHP-10E8_MPER-GT10v55_W3-19 (antibody, V domains shown)
VH: EVQLVESGGGLVQPGGSLRLSCAASGFTFSNYWMSWVRQAPGKGLEWVGFIKNKADGGTAAYAESVKGRFSISRDDSKNTLYLQMNSLKTEDTAVYYCTRDVGRYNFWSGYYSHNRIDVWGPGVLVTVSS
VL: SYELTQPPSVSVSPGQMARITCGGDNLGSKYVHWFQQKPAQAPALVIYDDSDRPSGIPERFSGSKSGNTATLTISGVESGDEADYYCQVWDSGTDHPLFGGGTRLTV
B15: MPER18_d21_45.1_v55_m3_B08 (antibody, V domains shown)
VH: QVQLQQPGAELVKPGASVKLSCKASGYTFTSYWMHWVKQRPGQGLEWIGMIRPNSGSTNYNERFKSKATLTVDKSSSTAYMQLSSLTSGDSAVYYCAKGGTWTMDYWGQGTSVTVSS
VL: DIVMTQSPSSLSVSAGEKVTMICKSSQSLLNSGNQKNYLAWYQQKPGQPPKLLIYGASTRESGVPDRFTGSGSGTDFTLTISSVQAEDLAVYYCQNDHSYPLTFGAGTKLELK
B16: NHP-10E8_MPER-GT10v55_W3-18 (antibody, V domains shown)
VH: EVQLVESGGGLVQPGGSLRLSCAASGFTFSDYAMDWVRQAPGKGLEWVGYIRSKDYGGTAEYAASVKGRLTISRDDSKNTAYLQMNSLKTEDTAVYYCSRGRGYYHFWSGYYTPYNRFDVWGPGVLVTVSS
VL: DVVMTQSPLSLPVTPGQPASISCRSSQSLVHSDGKTYLNWLQQKPGQPPRRLIYQVSNRDSGVPDRFSGSGAGTDFTLKISRVEAEDVGVYYCVQGTNVPWTFGQGTKVEIK
B17: MPER-051 (antibody, V domains shown)
VH: QVQLVESGGGLVKPGGSLRLSCAASGFTFSDYYMSWIRQAPGKGLEWVSYISSSGSTIYYADSVKGRFTISRDNAKNSLYLQMNSLRAEDTAVYYCASLAHTYYDFWSGYYDRYYGMDVWGKGTTVTVSS
VL: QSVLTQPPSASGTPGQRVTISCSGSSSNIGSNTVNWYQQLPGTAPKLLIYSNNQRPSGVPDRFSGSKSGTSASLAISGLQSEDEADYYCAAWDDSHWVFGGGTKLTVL
B18: MPER18_d21_45.1_v55_m3_F03 (antibody, V domains shown)
VH: EVQLQQSGPVLVKPGPSLKISCKASGFTITDYYMHWVKQTHGKSLAWIGLLYPYNGGTSYNQKFKGKATLTVDTSSSTAYMELNSLTSDDSAVYYCAREGHYDRKGYFDVWGTGTTVTVSS
VL: DIVMTQSHKFMSTSVGDRVSITCKASQDVSTAVAWYQQKPGQSPKLLIYWASTRHTGVPDRFTGSGSGTDYTLIISSVQAEDLALYYCQQHYSIPFTFGSGTKLEIK
B19: MPER18_d21_45.2_v55_04 (antibody, V domains shown)
VH: QVQLQESGPGLVKPSETLSLTCTVSGDSISSYYWNWIRQPPGKGLEWIGYFYYYGSTNYNPSLKSRVTISVDTSKNQFSLNLSSVTAADTAVYYCAREPPYYDFWSGLSMGVDTFDIWGQGTMVTVSS
VL: DVVMTQTPLSLPVSLGDQASISCRSSQSLVHSNGNTYLHWYLQKPGQSPKLLIYKVSNRFSGVPDRFSGSGSGTDFTLKISRVEAEDLGVYFCSQSTHVPRTFGGGTKLEIK
B20: MPER18_d21_45.2_v55_17 (antibody, V domains shown)
VH: B8 VH with S33F, S52Y, Y53N, N60H, S76N, N106S, E107G
VL: B10 VL with I2V, V3L, S24R, N28S, N33S, Y35N, F67I, S68G, Y92F, Y101W
B21: MPER18_d21_45.2_v55_m15_C11 (antibody, V domains shown)
VH: B19 VH with D27G, F51I, Y52F, Y54S, S56T, N81K, L82V, S83R, D113G, T114S
VL: B10 VL with T7S, S24R, N28T, H31Y, N33S, Y92F, Y101W
B22: MPER18_d21_45.2_v55_m15_E09 (antibody, V domains shown)
VH: B19 VH with D27G, S31N, N35S, Y54S, S56T, N81K, D113G, T114A
VL: B10 VL with I2V, V3L, S24R, N28S, H31Y, Y101W
B23: MPER18_d21_45.2_v55_22 (antibody, V domains shown)
VH: B8 VH with S33Y, S52Y, S76N, N106G, E107G, S109F
VL: B8 VL with I7T, Q31H, N32S, F41Y, K50N, F60L
B24: MPER18_d21_45.2_v55_m15_C05 (antibody, V domains shown)
VH: B8 VH with S33C, P40S, S52Y, T57I, Y59H, V71A, S76N, N106S, E107G
VL: B19 VL with V2I, T7S, S32N, K44Q, K55N, V56F
B25: MPER18_d21_45.2_v55_24 (antibody, V domains shown)
VH: B8 VH with S33Y, S52Y, S76N, N106S, E107G, M123L
VL: B10 VL with I2V, V3L, M4L, T7S, S10A, S24R, N28S, I53V, A85T
B26: MPER18_d21_45.2_v55_m5_D04 (antibody, V domains shown)
VH: B8 VH with S33Y, Y50H, S52Y, S65G, S76N, S83T, N106S, E107G
VL: B10 VL with I2V, V3L, S24R, N28S, L38V, S68T, E86A
B27: MPER18_d21_45.2_v55_m15_D04 (antibody, V domains shown)
VH: B8 VH with S31G, S33Y, S52Y, S76N, N106S, E107G, I117F
VL: B10 VL with I2V, V3L, T7S, S24R, N28S, Y35N, K79R, Y101C
B28: MPER18_d21_45.2_v55_12 (antibody, V domains shown)
VH: B19 VH with K13T, G49E, F51M, Y52F, Y54S, N81K, D113G, T114A
VL: B10 VL with T7S, S24R, N28S, E39D, K44R

This assay concerns the target T1, 10E8-GT10.2 epitope scaffold.
B1 came in with a Kd of 985 nM. That is a sub-micromolar value.

B2 yielded a Kd of 1250 nM.

As to B3, binding was characterised by a dissociation constant (Kd) of 3.38 nM. This Kd lies about 370-fold lower than the previous one.

B4 showed a Kd of 94.6 nM.

B5 displayed a Kd of 6750 nM.

For the molecule B6, binding was characterised by a dissociation constant (Kd) of 4100 nM. This Kd lies about 1.6-fold lower than the previous one.

In turn, B7 gave a Kd of 4560 nM.

B8: the Kd worked out at 9.89 nM. This Kd lies about 460-fold lower than the previous one.

For the molecule B9, the Kd came out at 2.79 nM.

With B10, binding was characterised by a dissociation constant (Kd) of 0.571 nM.

The molecule B11 registered a Kd of 2.21 nM.

Turning to B12, the Kd worked out at 14.1 nM.

As to B13, the Kd was 86.1 nM. Compared with the last molecule, the Kd is about 6.1-fold higher.

Take B14: the Kd was found to be 345 nM.

Regarding B15, binding was characterised by a dissociation constant (Kd) of 245 nM.

B16 yielded a Kd of 1.16 nM.

Turning to B17, binding was put at a Kd of 13000 nM.

In the case of B18, the Kd was found to be 31.2 nM.

As for B19, the affinity, expressed as Kd, was 563 nM.

B20 had a dissociation constant (Kd) of 13.2 nM.

The molecule B21 came in with a Kd of 6.91 nM.

B22 displayed an equilibrium dissociation constant (Kd) of 14.8 nM.

As to B23, the Kd amounted to 2.87 nM. This Kd lies about 5.2-fold lower than the previous one.

Molecule B24 came in with a Kd of 401 nM.

The molecule B25 had a Kd of 0.249 nM.

Consider B26, for which the Kd is 0.714 nM.

B27 came in with a Kd of 21.9 nM.

As to B28, the Kd stood at 0.662 nM.

The values above are taken from article PMC11147780, “Vaccination induces broadly neutralizing antibody precursors to HIV gp41” (Nature Immunology, 2024).
